B1: TPR t1 (parent)
chain: GACCAAUCUGCCCUCAGAGCUCGAGAACAUCUUCGGAUGCAGAGGAGGCAGGCUUCGGUGGCGCGAUAGCGCCAACGUCCUCAACCUCCAAUGCAUCCCACCACAUGAUGAUGCCUGAAGAGCCUUGGUUUUUUG

Variants of: B1
Assay: polymerase ribozyme fitness, log enrichment relative to wild type (log ratio); higher = more active; in vitro selection for triplet polymerase activity
Method in brief: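 Streptavidin-bead capture of gel-excised extended constructs, followed by RT-PCR, closed a single triplicate in vitro selection round. That round began by annealing PCR-built, transcribed mutant libraries of each subunit of a heterodimeric triplet polymerase ribozyme with a biotinylated primer, the partner subunit and triplets, then incubating them frozen at −7 °C. After Illumina sequencing of inputs and outputs, genotypes needed ≥10 input reads and ≥1 read per output. Fitness is the base-2 logarithm of genotype enrichment over wild-type enrichment, using inverse-variance-weighted replicate averages.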

Row | Variant | polymerase ribozyme fitness (log ratio)
1 | U7G C15U C20U | -1.35
2 | A6G C31A G42U C53U A95U C101U C114U U126A | -5.71
3 | A6U C40G G51U | -4.16
4 | U7A C13G U32C U38G G63C | -2.61
5 | U7A G69C A95G | -0.796
6 | U7C A91U C94G | -2.67
7 | A6C G52U C70G A74U G120C | -5.83
8 | U7G A41G C53A G61U C79U A90U A111C | -3.04
9 | U7G C49U C80U A111C | -4.73
10 | A6U U30C G93U G120U | -3.6
11 | U7A G60U U112A | 1.29
12 | A6G C72A C79A C102U A118U | -2.3
13 | A6G G52U | -1.27
14 | A6G C40G U59A A103U | -6.42
15 | U7G C31U C62U A100C U106A G113A | -4.43
16 | U7G C12U C15A C22G C62U C80U C86U U96C G113C | -6.05
17 | U7C C8G | -0.253
18 | A6U G57C G63A A90G | -0.878
19 | U7A C56G C101U | 0.801
20 | U7A A105U C115U | -3.4
21 | A6G G10A C20A U112G | -1.35
22 | U7C C8G C62U G93U A95C | -0.906
23 | U7C C34A G44C A84U | -4.89
24 | U7A G42A C86U | -1.98

Row | Variant | polymerase ribozyme fitness (log ratio)
25 | A6U A27G C79U A111C | -4.62
26 | A6C U78A C79A | -3.63
27 | U7A G57A | -0.474
28 | U7A C40U G48U C53G C85A A119U | -0.816
29 | U7A U38G C49A | -0.102
30 | A6G G45C C94U G120A U126G | -5.4
31 | A6U A26U C34A A43U A121C | -7.38
32 | U7A U81G G122A | -5.92
33 | A6G G51A | -2.27
34 | U7C G57A | -0.108
35 | U7C G57U | 0.0649
36 | U7C G61U | 0.179
37 | A6U A68G A75U U92A C123A | -4.87
38 | U7A G52U G60A G61C C62U | -6.92
39 | A6U C49A C53A C79A C85U A111C | -3.36
40 | A6U U14G | -1.38
41 | A6G U112A U125G U129A | -1.7
42 | U7G A27U G48A U112A | -1.8
43 | U7C C62U C99G U112G U132C U134A G135U | -6.65
44 | A6G U112G C114G A119G U131C | -5.15
45 | U7A G17U G52C C64U C123G | -1.52
46 | A6U G61C | -1.18
47 | A6U A46C C85G G113A G135C | -3.74
48 | U7C C53G C56A G60A A111G | 0.682

Row | Variant | polymerase ribozyme fitness (log ratio)
49 | U7A U21G A75G | -1.8
50 | A6U A50G C123A G128C | -0.104
51 | U7A C13U G71A C115U G128A | -2.21
52 | U7G A43U G48U G60C C115A U126A | -3.03
53 | U7C G93A | -1.65
54 | U7A C13U A41U C82A G127A | -2.71
55 | U7A C11A C101U G122U | 0.139
56 | A6U G58A A83U U106A | 0.545
57 | U7G C12G A37G | 0.709
58 | U7C C85G U87C | -1.57
59 | U7C C31U | -4.85
60 | U7C C20A G39C G61A | -3.85
61 | U7G C15G C49G U112G | -1.33
62 | U7G A18U C101U | -1.59
63 | A6C G117U U126A U131C | -6.38
64 | U7C U96C C102A A108U C114U | -5.22
65 | U7A C70U G77U U92C G117C | -5.47
66 | U7A C15G C88U C124U | 0.702
67 | U7G C13A A37C G52A G69C | -1.85
68 | A6U A16C | -2.44
69 | A6U C13A U21C | -1.41
70 | U7C A27G U92A | -3.82
71 | A6U A41G A91G | -2.5
72 | U7C C12A C13A G17A A27C C115U | -5.21

Row | Variant | polymerase ribozyme fitness (log ratio)
73 | A6U A37U G60U C82G C85G | -2.29
74 | A6U A26U G36C G63C | -5.14
75 | U7A C15A A41C A66C | -4.5
76 | U7A G35A U78G | -4.41
77 | U7C A18C U78C C82U | -1.52
78 | U7C C49A G61U A83C U129C | -0.315
79 | U7G A43U G47C G58U U59G C82U G110A | -5.4
80 | U7G A50G U54C G128U | -1.5
81 | A6U C15G U33A G63A G93A G113U | -6.39
82 | A6C G48A C82A | -1.56
83 | U7G A46U C82U C102A U112A | -0.759
84 | A6C G71C G113U | -4.81
85 | U7C G42U G60C G120A C124G G128A | -3.07
86 | U7A G47C C62U | -1.37
87 | U7G C13U A26G G48A C49U G52A A75C | -3.14
88 | U7A C64U C89G A91U C97U C115U | -2.72
89 | A6G C56G G69A C79A | -5.03
90 | U7G C15A U38C C40G A41U G48U G69A C89A U96G C98U A111G | -7.66
91 | A6C G57C C72U | -0.529
92 | A6U C53G | -0.289
93 | A6U C22G A26U C104U | -4.49
94 | U7C C97U C114A | -1.45
95 | A6U C72U U96C G117U | -3.88
96 | U7G C8A C86U | 0.828

Row | Variant | polymerase ribozyme fitness (log ratio)
97 | A6G G71A C101A | -3.04
98 | U7G C49A C123U | 0.939
99 | A6C U7A A27G U78C G113A | -1.35
100 | U7G A66C G71U | -1.24
101 | U7A C11A U14G G45U C53U C70A G113A G120U U133A | -4.43
102 | A6G G63U C124A G128U | -1.92
103 | A6U C15G G61A | -1.82
104 | A6U C12U U81C | -0.545
105 | A6G C72G C89U | -0.661
106 | U7A C12U A43U C49A C114G | -1.69
107 | A6G C11A U109G A119C C123G U125C | -5.22
108 | A6G A16G G17U A18G G47A G61U | -3.02
109 | U7G A16C U55G C56U A84G | -4.09
110 | A6U C15U C31G G51A U54A C73U C115U | -5.8
111 | U7C G39A | -0.619
112 | A6U G36C A37G A43G | -2.57
113 | A6U A50C | 0.0675
114 | A6G C72A | 0.991
115 | A6G C72U | 0.164
116 | U7A A46G C70U A111C G113A | -3.8
117 | A6U C86U C89G | -1.63
118 | A6G G25A C34U G42C G69C U87C C114A C124U | -6.61
119 | A6G G39U | -0.397
120 | A6U G48A A68G C123A | -2.21

Row | Variant | polymerase ribozyme fitness (log ratio)
121 | U7C A27U C79U | -3.22
122 | A6U A26C C34G C64G A111U | -7.61
123 | A6U A26U | -3.54
124 | U7G A74C G93U G113A | -1.35
125 | A6U U9C G47A G69A | -2.93
126 | A6G U14G G58A | -0.642
127 | A6U C22U G51A | -5.76
128 | U7A C13U C15U G44U U59C G77U | -2.18
129 | U7G A46C C97U G120U G127U | 0.436
130 | U7C U9G A26G C72A | -1.08
131 | A6C G113U | -3.54
132 | A6U A16U A46C C56G | -2.72
133 | U7A C8A A37G U59G C62U C88U G113C | -3.69
134 | A6G C8G C11U C22U C79U | -3.56
135 | A6U G93C | -0.28
136 | A6U C76U | -0.345
137 | U7G A43G G47U G61A U96A | -2.6
138 | U7C G42C C88U C115U U133A | -0.576
139 | A6G G48A G52C C85G U112C | -0.453
140 | A6U C20A G61U U125G | -2.23
141 | A6G G10A | 0.127
142 | A6G U7G A18C G48U C53A G63A C115A | -1.55
143 | A6G C8A U125A | 0.146
144 | U7C C8U C20A G71A G93U | -5.59

Row | Variant | polymerase ribozyme fitness (log ratio)
145 | A6U G60C | 0.0676
146 | U7C C34U G61U C88A U116A | -5.7
147 | A6U C8A G52U C53A C72A U92A C101A U130G | -5.85
148 | U7A G36C G52A U55G | -0.803
149 | U7C C62A G110A A119C | -4.23
150 | U7A G17U G117A A118G | -2.58
151 | A6U C8G C13U C20U G51A G61U | -4.27
152 | U7A A103C | -4.75
153 | A6U A26G G52A G71U | -3.21
154 | A6G C12U G36U G52U C70U U96G A121C | -2.52
155 | A6U C94A U96G | -3.1
156 | U7C G42C U87A | -1.73
157 | U7G C40U U54C C73A U106A | 1.14
158 | U7G C22U C101A C114A A118U A119U | -5.29
159 | U7C C13U G60A A105U | -1.71
160 | U7A U92A G120A U133A | -0.782
161 | A6U G52U C53G C70U G128C | -2.99
162 | A6G A41C G57U G60A A100U | -2.82
163 | U7G A18G C62U G120C U125A | -2.15
164 | U7A C62U U129A | -0.65
165 | U7C A16G A29U G63U C97U U109A | -1.24
166 | A6G G60U U78C C104A U109A | -5.54
167 | A6U C8A U129A | -1.48

Source: the RNAGym collection of RNA variant scans (doi:10.1073/pnas.2313332121)
